What was measured:
[1] = biological target: fluorescent H3K4me3 peptide; assay: fluorescence polarisation; increasing concentrations of TAF3 PHD finger with fluorescent H3K4me3 peptide, no PI; apparent KD
[2] = biological target: fluorescent H3K4me3 peptide; assay: fluorescence polarisation; increasing concentrations of TAF3 PHD finger with fluorescent H3K4me3 peptide, with a 5-fold molar excess of PI5P; apparent KD

B1: GST-TAF3 PHD finger, wild type (domain or fragment)
chain: IWICPGCNKPDDGSPMIGCDDCDDWYHWPCVGIMTAPPEEMQWFCPKCANKKKDKKHKKRKHRAH
modifications: not checked
[1]
  Kd: 1000 nM
[2]
  Kd: 3.5 µM
